Data from US7067495.

Target: human IL-8 in L-CMV melanoma cell conditioned medium (human) (UniProt P10145)
Test: cell-based or functional assay

UniProt P10145, sequence (P10145 23-99 limits assumed): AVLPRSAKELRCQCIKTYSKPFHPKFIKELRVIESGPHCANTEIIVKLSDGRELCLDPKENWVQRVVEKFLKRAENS

inhibition of PMNLs chemotaxis induced by L-CMV CCM: 30%
Substance: mouse anti-hIL-8 mAb (6214.11, R&D Systems) (antibody)
